B1: Protein VAC14 homolog (Homo sapiens), Q08AM6 (parent)
chain: MNPEKDFAPLTPNIVRALNDKLYEKRKVAALEIEKLVREFVAQNNTVQIKHVIQTLSQEFALSQHPHSRKGGLIGLAACSIALGKDSGLYLKELIEPVLTCFNDADSRLRYYACEALYNIVKVARGAVLPHFNVLFDGLSKLAADPDPNVKSGSELLDRLLKDIVTESNKFDLVSFIPLLRERIYSNNQYARQFIISWILVLESVPDINLLDYLPEILDGLFQILGDNGKEIRKMCEVVLGEFLKEIKKNPSSVKFAEMANILVIHCQTTDDLIQLTAMCWMREFIQLAGRVMLPYSSGILTAVLPCLAYDDRKKSIKEVANVCNQSLMKLVTPEDDELDELRPGQRQAEPTPDDALPKQEGTASGGPDGSCDSSFSSGISVFTAASTERAPVTLHLDGIVQVLNCHLSDTAIGMMTRIAVLKWLYHLYIKTPRKMFRHTDSLFPILLQTLSDESDEVILKDLEVLAEIASSPAGQTDDPGPLDGPDLQASHSELQVPTPGRAGLLNTSGTKGLECSPSTPTMNSYFYKFMINLLKRFSSERKLLEVRGPFIIRQLCLLLNAENIFHSMADILLREEDLKFASTMVHALNTILLTSTELFQLRNQLKDLKTLESQNLFCCLYRSWCHNPVTTVSLCFLTQNYRHAYDLIQKFGDLEVTVDFLAEVDKLVQLIECPIFTYLRLQLLDVKNNPYLIKALYGLLMLLPQSSAFQLLSHRLQCVPNPELLQTEDSLKAAPKSQKADSPSIDYAELLQHFEKVQNKHLEVRHQRSGRGDHLDRRVVL
partner: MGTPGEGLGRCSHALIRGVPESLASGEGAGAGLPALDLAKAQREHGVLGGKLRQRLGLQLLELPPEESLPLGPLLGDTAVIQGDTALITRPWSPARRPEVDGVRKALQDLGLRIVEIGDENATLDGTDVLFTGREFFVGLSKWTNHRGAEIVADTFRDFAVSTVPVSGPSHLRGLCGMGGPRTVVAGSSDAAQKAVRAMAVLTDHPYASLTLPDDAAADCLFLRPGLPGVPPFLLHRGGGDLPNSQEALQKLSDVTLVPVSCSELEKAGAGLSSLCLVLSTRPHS
B2: Protein VAC14 homolog (Homo sapiens), Q08AM6 (parent)
chain: B1 chain
partner: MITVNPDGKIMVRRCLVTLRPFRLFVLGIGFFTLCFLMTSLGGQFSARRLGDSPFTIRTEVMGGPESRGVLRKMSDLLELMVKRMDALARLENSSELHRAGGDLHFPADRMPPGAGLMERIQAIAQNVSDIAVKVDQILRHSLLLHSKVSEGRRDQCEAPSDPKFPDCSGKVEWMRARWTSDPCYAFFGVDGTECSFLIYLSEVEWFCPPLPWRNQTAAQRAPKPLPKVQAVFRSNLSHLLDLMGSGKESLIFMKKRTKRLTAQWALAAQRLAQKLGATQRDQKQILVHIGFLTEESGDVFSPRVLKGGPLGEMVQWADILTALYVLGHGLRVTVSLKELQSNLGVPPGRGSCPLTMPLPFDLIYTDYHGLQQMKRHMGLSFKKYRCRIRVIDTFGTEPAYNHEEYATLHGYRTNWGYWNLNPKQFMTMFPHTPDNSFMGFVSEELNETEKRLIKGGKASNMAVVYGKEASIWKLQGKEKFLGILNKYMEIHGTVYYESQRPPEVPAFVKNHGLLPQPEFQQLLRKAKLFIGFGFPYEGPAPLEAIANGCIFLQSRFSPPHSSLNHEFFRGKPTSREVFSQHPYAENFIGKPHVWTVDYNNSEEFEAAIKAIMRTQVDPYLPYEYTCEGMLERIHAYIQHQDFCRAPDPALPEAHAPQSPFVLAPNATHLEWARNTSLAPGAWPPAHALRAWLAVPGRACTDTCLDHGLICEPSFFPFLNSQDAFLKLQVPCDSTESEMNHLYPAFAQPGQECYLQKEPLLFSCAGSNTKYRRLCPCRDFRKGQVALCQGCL
B3: Exportin-6 (Homo sapiens), Q96QU8 (parent)
chain: MASEEASLRALESLMTEFFHDCTTNERKREIEELLNNFAQQIGAWRFCLYFLSSTRNDYVMMYSLTVFENLINKMWLGVPSQDKMEIRSCLPKLLLAHHKTLPYFIRNKLCKVIVDIGRQDWPMFYHDFFTNILQLIQSPVTTPLGLIMLKTTSEELACPREDLSVARKEELRKLLLDQVQTVLGLLTGILETVWDKHSVTAATPPPSPTSGESGDLLSNLLQSPSSAKLLNQPIPILDVESEYICSLALECLAHLFSWIPLSASITPSLLTTIFHFARFGCDIRARKMASVNGSSQNCVSGQERGRLGVLAMSCINELMSKNCVPMEFEEYLLRMFQQTFYLLQKITKDNNAHTVKSRLEELDESYIEKFTDFLRLFVSVHLRRIESYSQFPVVEFLTLLFKYTFHQPTHEGYFSCLDIWTLFLDYLTSKIKSRLGDKEAVLNRYEDALVLLLTEVLNRIQFRYNQAQLEELDDETLDDDQQTEWQRYLRQSLEVVAKVMELLPTHAFSTLFPVLQDNLEVYLGLQQFIVTSGSGHRLNITAENDCRRLHCSLRDLSSLLQAVGRLAEYFIGDVFAARFNDALTVVERLVKVTLYGSQIKLYNIETAVPSVLKPDLIDVHAQSLAALQAYSHWLAQYCSEVHRQNTQQFVTLISTTMDAITPLISTKVQDKLLLSACHLLVSLATTVRPVFLISIPAVQKVFNRITDASALRLVDKAQVLVCRALSNILLLPWPNLPENEQQWPVRSINHASLISALSRDYRNLKPSAVAPQRKMPLDDTKLIIHQTLSVLEDIVENISGESTKSRQICYQSLQESVQVSLALFPAFIHQSDVTDEMLSFFLTLFRGLRVQMGVPFTEQIIQTFLNMFTREQLAESILHEGSTGCRVVEKFLKILQVVVQEPGQVFKPFLPSIIALCMEQVYPIIAERPSPDVKAELFELLFRTLHHNWRYFFKSTVLASVQRGIAEEQMENEPQFSAIMQAFGQSFLQPDIHLFKQNLFYLETLNTKQKLYHKKIFRTAMLFQFVNVLLQVLVHKSHDLLQEEIGIAIYNMASVDFDGFFAAFLPEFLTSCDGVDANQKSVLGRNFKMDRDLPSFTQNVHRLVNDLRYYRLCNDSLPPGTVKL
B4: Vacuolar protein-sorting-associated protein 25 (Homo sapiens), Q9BRG1 (parent)
chain: MAMSFEWPWQYRFPPFFTLQPNVDTRQKQLAAWCSLVLSFCRLHKQSSMTVMEAQESPLFNNVKLQRKLPVESIQIVLEELRKKGNLEWLDKSKSSFLIMWRRPEEWGKLIYQWVSRSGQNNSVFTLYELTNGEDTEDEEFHGLDEATLLRALQALQQEHKAEIITVSDGRGVKFF
partner: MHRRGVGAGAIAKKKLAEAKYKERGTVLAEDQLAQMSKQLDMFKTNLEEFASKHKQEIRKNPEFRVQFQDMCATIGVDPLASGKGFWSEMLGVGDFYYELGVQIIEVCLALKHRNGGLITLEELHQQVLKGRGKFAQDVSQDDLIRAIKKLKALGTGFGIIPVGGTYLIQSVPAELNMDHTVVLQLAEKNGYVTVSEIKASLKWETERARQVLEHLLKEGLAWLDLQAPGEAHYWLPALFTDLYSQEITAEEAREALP
B5: Coiled-coil domain-containing protein 120 (Homo sapiens), Q96HB5-4 (parent)
chain: MRREPRYQGQVGPDIHTDSERTLSSHQPRPLDSTKMEVKGQLISSPTFNAPAALFGEAAPQVKSERLRGLLDRQRTLQEALSLKLQELRKVCLQEAELTGQLPPECPLEPGERPQLVRRRPPTARAYPPPHPNQAHHSLCPAEELALEALEREVSVQQQIAAAARRLALAPDLSTEQRRRRRQVQADALRRLHELEEQLRDVRARLGLPVLPLPQPLPLSTGSVITTQGVCLGMRLAQLSQEDVVLHSESSSLSESGASHDNEEPHGCFSLAERPSPPKAWDQLRAVSGGSPERRTPWKPPPSDLYGDLKSRRNSVASPTSPTRSLPRSASSFEGRSVPATPVLTRGAGPQLCKPEGLHSRQWSGSQDSQMGFPRADPASDRASLFVARTRRSNSSEALLVDRAAGGGAGSPPAPLAPSASGPPVCKSSEVLYERPQPTPAFSSRTAGPPDPPRAARPSSAAPASRGAPRLPPVCGDFLLDYSLDRGLPRSGGGTGWGELPPAAEVPGPLSRRDGLLTMLPGPPPVYAADSNSPLLRTKDPHTRATRTKPCGLPPEAAEGPEVHPNPLLWMPPPTRIPSAGERSGHKNLALEGLRDWYIRNSGLAAGPQRRPVLPSVGPPHPPFLHARCYEVGQALYGAPSQAPLPHSRSFTAPPVSGRYYADFLYPPELSARLSDLTLEGEQSSSSDTQTPGTLV
partner: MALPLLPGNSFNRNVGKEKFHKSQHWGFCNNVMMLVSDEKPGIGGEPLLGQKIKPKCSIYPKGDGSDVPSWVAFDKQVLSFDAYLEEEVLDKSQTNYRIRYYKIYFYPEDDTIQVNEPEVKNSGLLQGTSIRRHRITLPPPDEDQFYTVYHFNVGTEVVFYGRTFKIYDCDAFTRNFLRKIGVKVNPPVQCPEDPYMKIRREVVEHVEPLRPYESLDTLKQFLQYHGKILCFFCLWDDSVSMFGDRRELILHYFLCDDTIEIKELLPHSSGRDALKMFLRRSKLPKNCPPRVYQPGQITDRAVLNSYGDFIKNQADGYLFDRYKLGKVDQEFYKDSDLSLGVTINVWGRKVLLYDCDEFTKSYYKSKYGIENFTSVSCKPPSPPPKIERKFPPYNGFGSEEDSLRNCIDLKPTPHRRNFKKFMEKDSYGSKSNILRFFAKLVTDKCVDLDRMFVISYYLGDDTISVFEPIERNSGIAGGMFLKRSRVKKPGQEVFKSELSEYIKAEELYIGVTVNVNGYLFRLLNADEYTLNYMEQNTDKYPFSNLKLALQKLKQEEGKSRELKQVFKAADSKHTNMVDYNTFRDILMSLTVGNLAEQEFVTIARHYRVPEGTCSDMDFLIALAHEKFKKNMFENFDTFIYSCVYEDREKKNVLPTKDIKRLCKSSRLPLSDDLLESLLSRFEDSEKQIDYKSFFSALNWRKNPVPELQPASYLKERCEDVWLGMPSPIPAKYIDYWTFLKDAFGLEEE
B6: Protein VAC14 homolog (Homo sapiens), Q08AM6 (parent)
chain: B1 chain
partner: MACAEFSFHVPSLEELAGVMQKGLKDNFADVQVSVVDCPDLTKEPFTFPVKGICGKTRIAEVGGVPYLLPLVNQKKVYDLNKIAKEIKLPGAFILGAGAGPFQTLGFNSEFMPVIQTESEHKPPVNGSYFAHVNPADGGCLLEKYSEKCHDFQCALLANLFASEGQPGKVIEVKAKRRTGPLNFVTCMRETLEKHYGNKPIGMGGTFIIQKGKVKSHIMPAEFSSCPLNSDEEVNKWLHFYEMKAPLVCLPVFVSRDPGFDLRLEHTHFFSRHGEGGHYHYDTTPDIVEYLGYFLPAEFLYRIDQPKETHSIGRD

Variants of: B1
Details: with ddah2_human DDAH2, O95865

Row | effect of a mutation on the interaction | Variant
1 | with no effect | A127S

Variants of: B2
Details: with mgt5b_human MGAT5B

Row | effect of a mutation on the interaction | Variant
2 | with no effect | A127S

Variants of: B3
Details: with nup62_human NUP62, P37198
nup62_human NUP62, P37198, sequence (P37198 whole entry): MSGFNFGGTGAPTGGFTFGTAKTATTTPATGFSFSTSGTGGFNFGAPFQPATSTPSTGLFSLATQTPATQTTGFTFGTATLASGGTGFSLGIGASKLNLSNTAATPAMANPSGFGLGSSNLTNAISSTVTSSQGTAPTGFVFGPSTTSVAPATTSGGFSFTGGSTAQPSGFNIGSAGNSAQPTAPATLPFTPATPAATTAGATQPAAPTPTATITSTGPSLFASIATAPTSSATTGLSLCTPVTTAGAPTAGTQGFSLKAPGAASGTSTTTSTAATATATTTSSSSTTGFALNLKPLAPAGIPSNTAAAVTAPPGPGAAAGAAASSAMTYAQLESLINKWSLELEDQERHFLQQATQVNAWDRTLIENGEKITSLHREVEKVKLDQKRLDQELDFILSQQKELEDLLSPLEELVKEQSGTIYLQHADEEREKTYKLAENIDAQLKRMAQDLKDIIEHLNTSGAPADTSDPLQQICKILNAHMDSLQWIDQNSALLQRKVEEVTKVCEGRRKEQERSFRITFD

Row | effect of a mutation on the interaction | Variant
3 | with no effect | L512V

Variants of: B4
Details: with snf8_human SNF8, Q96H20

Row | effect of a mutation on the interaction | Variant
4 | with no effect | P58Q

Variants of: B5
Details: with efhc2_human EFHC2, Q5JST6

Row | effect of a mutation on the interaction | Variant
5 | with no effect | R346W

Variants of: B6
Details: with ck054_human C11orf54, Q9H0W9

Row | effect of a mutation on the interaction | Variant
6 | with no effect | A127S

Source: IntAct's records for PubMed 29892012
